How the values were obtained:
[1] = biological target: T1, ybbR-tagged full-length Gallus gallus FANCD2 labelled with Cy3 (Gallus gallus, UniProt Q68Y81 1-1439, modified Cy3 (LD555-CoA) conjugated to the carboxyl-terminal ybbR tag); assay: single-molecule two-colour confocal imaging on optically trapped DNA; 5 nM labelled D2–I loaded on λ DNA held between beads, imaged in the protein-free channel; 20 mM HEPES pH 7.5, 75 mM NaCl, 0.5 mg/ml BSA, 1 mM TCEP; 22 °C; conditions: both partners purified
T1 construct: FANCD2, Gallus gallus, codon-optimized full-length construct; also called FANCD2-Cy3; FANCD2-ybbR; source: Sf9, purified (Strep-Tactin, heparin, Superdex 200), labelled with SFP synthase and gel filtered

[2] = biological target: T2, Cy3 labelled monoubiquitinated Gallus gallus FANCD2_ybbR (Gallus gallus | , UniProt Q68Y81 1-1439; P0CG48 1-76, monoubiquitinated with His-tagged ubiquitin; Cy3 (LD555-CoA) conjugated to the ybbR tag | joined to a lysine of FANCD2); assay: single-molecule two-colour confocal imaging on optically trapped DNA; ubD2–I formed by incubating purified ubFANCD2 and FANCI with relaxed, optically trapped λ DNA (less than 1 pN), then moved to the protein-free channel; kymographs at 15 pN; conditions: both partners purified
T2 construct: FANCD2, Gallus gallus, full-length ybbR-tagged construct as in m3; ubiquitin, His-tagged, bought from Enzo Life Sciences; also called ubFANCD2; ubFANCD2_ybbR; copies: 1 + 1

B1: ybbR-tagged full-length Gallus gallus FANCI labelled with Cy5 (natural protein, UniProt B0I564 1-1338, looked up)
chain: MAQRILQLAAEGSPERLQEALQGLTEGELGDMVTRQALRGRETAALLKGIFKGSPCSQQSGVLRRLQVYKHCVSLVESGDLHVGKVSEIIGLLMLEARQLPGHALAELATLFVEVIKRGSLSNGKSLELFSTVLTALSNSKESLAYGKGELNGEEFKKQLINTLCSSKWDPQCVIHLANMFRDIPLSGEELQFVVEKVLRMFSKLDLQEIPPLVYQLLLLSAKGSKKTVLEGIISFFNQLDKRQKEEQRVPQSADLEVATVPLDQLRHVEGTVILHIVSAINLDQDIGEELIKHLKTEQQKDPGKALCPFSVSLLLSTAVKHRLQEQIFDFLKTSITRSCKDLQILQASKFLQDLCPQQYDVTAVILEVVKNSAFGWDHVTQGLVDLGFSLMESYEPKKSFGGKAAETNLGLSKMPAQQACKLGASILLETFKVHEPIRSDILEQVLNRVLTKAASPVSHFIDLLSNIVVSAPLVLQNSSSRVTETFDNLSFLPIDTVQGLLRAVQPLLKVSMSVRDSLILVLQKAIFSRQLDARKAAVAGFLLLLRNFKILGSLTSSQCSQAIGATQVQADVHACYNSAANEAFCLEILGSLRRCLSQQADVRLMLYEGFYDVLRRNSQLASSIMETLLSQIKQYYLPQQDLLPPLKLEGCIMAQGDQIFLQEPLAHLLCCIQHCLAWYKSTVHLCKGAEDEEEEEDVGFEQNFEEMLESVTRRMIKSELEDFELDKSADFSPSSGVGVKNNIYAIQVMGICEVLIEYNFKIGNFSKNKFEDVLGLFTCYNKLSEILKEKAGKNKSTLGNRIARSFLSMGFVSTLLTALFRDNAQSHEESLAVLRSSTEFMRYAVSVALQKVQQLEEMGQTDGPDGQNPEKMFQNLCKITRVLLWRYTSIPTAVEESGKKKGKSISLLCLEGLLRIFNTMQQLYAARIPQFLQALDITDGDAEEADINVTEKAAFQIRQFQRSLVNQLSSAEDDFNSKETQLLITILSTLSKLLDPGSQQFLQFLTWTVKICKENALEDLSCCKGLLTLLFSLHVLYKSPVSLLRELAQDIHACLGDIDQDVEIESRSHFAIVNVKTAAPTVCLLVLGQADKVLEEVDWLIKRLTILGSDTSEDSTQASNQTQALEKGVILQLGTLLTVFHELVQTALPAGSCVDSLLRSLSKTYAILTSLIKHYIQACRSTSNTVPGRLEKLVKLSGSHLTPQCYSFITYVQNIHSESLSFAEEKKKKKKEDETAVVSTVMAKVLRDTKPIPNLIFAIEQYEKFLIHLSKKSKVNLMQYMKLSTSRDFRINASMLDSVLQEQNTEDAENEPDNNQSGTAEQPDENQEPQKKRRRKK
modifications: modified Cy5 (LD655-CoA) conjugated to the carboxyl-terminal ybbR tag
notes: FANCI, Gallus gallus, full-length; C-terminal extension with a 3C protease site and 6xHis-tag before the ybbR tag; also called FANCI-Cy5; FANCI-ybbR; source: Sf9, purified (HisTrap, heparin, Superdex 200), labelled with SFP synthase and gel filtered
binding result [1]: binds | binding result [2]: binds
